The record followed here is publication PMC9655578.

Substrate in series [1]: O=c1cc(-c2ccc(O)cc2)oc2cc(O)cc(O)c12
In words: purified protein. The note with it: CYP:Pdx:PdR 1:8:2 (P. putida redox partners; CYP 1 µM), 500 µM NADH, phosphate buffer; 3'-hydroxylation.

Substrate in series [2]: O=C1C[C@@H](c2ccc(O)cc2)Oc2cc(O)cc(O)c21
In words: purified protein. To be noted: CYP:Pdx:PdR 1:8:2 (P. putida redox partners; CYP 1 µM), 500 µM NADH, phosphate buffer; 3'-hydroxylation.

B1: CYP101D5 (Sphingomonas echinoides) (protein)
chain: MSAAEEIHTPRPAHVPADRVVELDMYNPQGIEKGYLEAWTSLQTADLPSMVWTPLNGGHWIATRGELIQDIYCDPDHFSSHVIFIPKAAGEKYAMVPSKMDPPEHRPYREVVDKGLNLRAIREREPAVRAHAIALIEAFADKGHCDFVEEFSGEFPIRVFMMMADLPMEDSPKLRAFAAGMTRPEGNTPTEMADALDRANRSFFDYVSPIIDARMGGDGTDILTLSINSQVNGAPMEREKLLGMVSLLLLAGLDTVTNFLNMTMDYLGRHPDKVRELTENPTEIRRGVEELFRRFPLVAAARMVAHDVERDGVELKQGEMVLLPTALHGLDPRVNADPWEVDFQRKRPAHSTFGNGPHRCAGLHLARLETTVMLEEWLKRIPTFRVVPGTGPTYHSGVVASVDGVRLEW
Turning to B1, in series [1], the Michaelis constant (Km) came out at 46.28 ± 4.88 µM and the kcat came to 0.0138 s⁻¹. In series [2], the Km stood at 26.39 ± 2.23 µM and the turnover number (kcat) was 0.0195 s⁻¹.
